Results taken from doi:10.1101/2025.01.22.634233.

What was measured:
Experiment in all cases: fluorescence polarisation
[1] = biological target: pY1pS5-(CTD)2 peptide, 5,6-FAM-labelled
[2] = biological target: non-phosphorylated (CTD)2 peptide, 5,6-FAM-labelled
[3] = biological target: pS5-(CTD)2 peptide, 5,6-FAM-labelled

Substance | Kd [1] | Kd [2] | Kd [3]
BRCA1 BRCT (BRCA1^1646-1859), wild type (from UniProt P38398 1646-1859) (domain or fragment) | 184 µM | 948 µM | –
BRCA1 BRCT R1699L (from UniProt P38398 1646-1859) (domain or fragment) | – | – | 413 µM
BRCA1 BRCT^S1655F,K1702M (from UniProt P38398 1646-1859) (domain or fragment) | – | – | 895 µM
